The values below come from patent publication US20240117018A1.

Assay in all cases: cell-based or functional assay
Assay [1] addresses Env of HIV-1 pseudovirus 1056_10_TA11_1826 (HIV-1).
For assay [2], the target named is Env of HIV-1 pseudovirus CNE58 (HIV-1).
Assay [3] addresses Env of HIV-1 pseudovirus 249M B10 (HIV-1).
Assay [4] addresses Env of HIV-1 pseudovirus WITO4160.33 (HIV-1).
In assay [5] the target is Env of HIV-1 pseudovirus TRO.11 (HIV-1).
Assay [6] addresses Env of HIV-1 pseudovirus 62357_14_D3_4589 (HIV-1).
Assay [7] has as its target Env of HIV-1 pseudovirus Ce1176_A3 (HIV-1).
For assay [8], the target named is Env of HIV-1 pseudovirus HIV-16055-2.3 (HIV-1).
Assay [9] addresses Env of HIV-1 pseudovirus CNE53 (HIV-1).
The target in assay [10] is Env of HIV-1 pseudovirus 191084 B7-19 (HIV-1).
The target of assay [11] is Env of HIV-1 pseudovirus ZM249M.PL1 (HIV-1).
Assay [12] concerns the target Env of HIV-1 pseudovirus 246F C1G (HIV-1).
The target in assay [13] is Env of HIV-1 pseudovirus 6240_08_TA5_4622 (HIV-1).
The target in assay [14] is Env of HIV-1 pseudovirus ZM214M.PL15 (HIV-1).
The target in assay [15] is HIV-1 Env pseudovirus 3301.v1.c24 (HIV-1).
The target in assay [16] is HIV-1 Env pseudovirus R2184.c04 (HIV-1).
For assay [17], the target named is HIV-1 Env pseudovirus P0402_c2_11 (HIV-1).
Assay [18] concerns the target HIV-1 Env pseudovirus C2101.c01 (HIV-1).
Assay [19] addresses HIV-1 Env pseudovirus CNE5 (HIV-1).
For assay [20], the target named is HIV-1 Env pseudovirus 3016.v5.c45 (HIV-1).
Assay [21] addresses HIV-1 Env pseudovirus 231965.c01 (HIV-1).
Assay [22] has as its target HIV-1 Env pseudovirus 6540.v4.c1 (HIV-1).
In assay [23] the target is HIV-1 Env pseudovirus BJOX010000.06.2 (HIV-1).

Where only a bound is given, the exact number is not on record here.

On to 10-1074 (antibody), for which the half-inhibitory concentration (IC50) in [1] was 0.038 µg/mL; in assay [2], 0.267 µg/mL; in assay [3], more than 50 µg/mL; in [4], 0.185 µg/mL; in assay [5], 0.008 µg/mL; in assay [6], more than 50 µg/mL. In addition, the IC50 in assay [7] was 0.019 µg/mL; in [8], more than 50 µg/mL; in assay [9], 0.039 µg/mL; in [10], 0.032 µg/mL; in [11], more than 50 µg/mL; in assay [12], 0.022 µg/mL. Further, the half-inhibitory concentration (IC50) stood at 0.068 µg/mL in [13] and 0.174 µg/mL in assay [14]. Also, the concentration for an effect of 80% (IC80) is 0.272 µg/mL in assay [1]; 0.968 µg/mL in [2]; more than 50 µg/mL in assay [3]; 2.11 µg/mL in assay [4]; 0.057 µg/mL in assay [5]; more than 50 µg/mL in [6]. The IC80 in assay [7] was 0.07 µg/mL; in assay [8], more than 50 µg/mL; in assay [9], 0.141 µg/mL; in assay [10], 0.128 µg/mL; in [11] it was more than 50 µg/mL; in assay [12], 0.111 µg/mL. Also, the 80% effect concentration (IC80) in assay [13] was 0.306 µg/mL; in assay [14], 2.37 µg/mL.

PG9 (antibody): the 50% inhibitory concentration (IC50) in assay [1] was 6.34 µg/mL; in [2] it was 0.038 µg/mL; in [3], 0.095 µg/mL; in assay [4] it was 0.01 µg/mL; in assay [5] it was 43.2 µg/mL; in [6], more than 50 µg/mL. In addition, the half-inhibitory concentration (IC50) was 0.014 µg/mL in assay [7]; 0.021 µg/mL in assay [8]; 0.131 µg/mL in assay [9]; 0.043 µg/mL in assay [10]; 0.166 µg/mL in assay [11]; more than 50 µg/mL in [12]. The results for the IC50 in [13] and in assay [14] were 1.75 µg/mL and more than 50 µg/mL, respectively. The 80% effect concentration (IC80) in assay [1] was 38.3 µg/mL; in assay [2], 0.122 µg/mL; in assay [3] it was 0.29 µg/mL; in [4] it was 0.037 µg/mL; in assay [5], more than 50 µg/mL; in assay [6], more than 50 µg/mL. The IC80 in [7] was 0.044 µg/mL; in assay [8] it was 0.06 µg/mL; in assay [9] it was 0.6 µg/mL; in [10], 0.202 µg/mL; in [11], 1.41 µg/mL; in assay [12] it was more than 50 µg/mL. Also, the figures for the IC80 in [13] and in assay [14] were 6.33 µg/mL and more than 50 µg/mL, respectively.

With PG16 (antibody), the IC50 was 0.315 µg/mL in assay [1]; 0.044 µg/mL in assay [2]; 0.026 µg/mL in [3]; 0.002 µg/mL in [4]; 1.92 µg/mL in assay [5]; more than 50 µg/mL in assay [6]. Further, the IC50 is 0.003 µg/mL in assay [7]; 0.17 µg/mL in assay [8]; more than 50 µg/mL in assay [9]; 0.024 µg/mL in assay [10]; 0.127 µg/mL in [11]; more than 50 µg/mL in [12]. In addition, the half-inhibitory concentration (IC50) in assay [13] and in assay [14] was more than 50 µg/mL in each case. In addition, the concentration for an effect of 80% (IC80) in assay [1] is 1.95 µg/mL; in [2], 0.25 µg/mL; in assay [3], 1.25 µg/mL; in assay [4], 0.012 µg/mL; in assay [5], 49.6 µg/mL; in assay [6], more than 50 µg/mL. Besides, the concentration for an effect of 80% (IC80) in assay [7] was 0.011 µg/mL; in [8], more than 0.25 µg/mL; in assay [9] it was more than 50 µg/mL; in [10], 0.238 µg/mL; in assay [11], 18.1 µg/mL; in assay [12], more than 50 µg/mL. In addition, the 80% effect concentration (IC80) in assay [13] and in assay [14] was more than 50 µg/mL each time.

Take 10E8 (antibody): the IC50 was 0.134 µg/mL in assay [1]; 1.29 µg/mL in assay [2]; 1.27 µg/mL in assay [3]; 0.094 µg/mL in assay [4]; 0.034 µg/mL in assay [5]; 0.119 µg/mL in assay [6]. For the same substance, the IC50 in assay [7] is 0.867 µg/mL; in assay [8], 0.722 µg/mL; in [9], 0.326 µg/mL; in assay [10] it was 5.16 µg/mL; in assay [11], 1.51 µg/mL; in assay [12] it was 2.22 µg/mL. Besides, the half-inhibitory concentration (IC50) came out at 0.756 µg/mL in assay [13] and 1.96 µg/mL in assay [14]. Moreover, the concentration for an effect of 80% (IC80) in assay [1] turned out to be 1.03 µg/mL; in [2], 8.27 µg/mL; in [3], 9.05 µg/mL; in [4], 1.23 µg/mL; in [5], 0.25 µg/mL; in [6], 1.06 µg/mL. Further, the IC80 in [7] was 3.92 µg/mL; in assay [8] it was 6.5 µg/mL; in [9], 1.92 µg/mL; in assay [10] it was more than 10 µg/mL; in [11], 6.29 µg/mL; in assay [12], 9.94 µg/mL. The IC80 in assay [13] was 5.59 µg/mL; in [14], more than 10 µg/mL.

Regarding 8ANC195 (antibody), the IC50 (Titer in TZM.bl cells) in [15] is more than 50 µg/mL; in assay [16], 0.09 µg/mL; in assay [17], 0.62 µg/mL; in assay [18] it was 0.48 µg/mL; in assay [19] it was 2.12 µg/mL; in assay [20], 0.87 µg/mL. Further, the IC50 (Titer in TZM.bl cells) in assay [21] is 2.36 µg/mL; in assay [22], more than 50 µg/mL; in assay [23], 0.85 µg/mL. The IC80 (Titer in TZM.bl cells) in assay [15] was more than 50 µg/mL; in assay [16], 13 µg/mL; in assay [17] it was 6.35 µg/mL; in [18], 3.54 µg/mL; in assay [19] it was 9.67 µg/mL; in [20], more than 50 µg/mL. Also, the IC80 (Titer in TZM.bl cells) in assay [21] is 2.36 µg/mL; in [22], more than 50 µg/mL; in [23] it was 5.84 µg/mL.

Turning to VRC07 (antibody), the IC50 (Titer in TZM.bl cells) in assay [15] was 0.027 µg/mL; in [16], 0.02 µg/mL; in [17] it was 0.085 µg/mL; in assay [18], 0.238 µg/mL; in assay [19], 0.138 µg/mL; in assay [20] it was 0.095 µg/mL. The IC50 (Titer in TZM.bl cells) is 0.085 µg/mL in [21], more than 50 µg/mL in [22] and 1.06 µg/mL in assay [23]. Moreover, the IC80 (Titer in TZM.bl cells) in assay [15] was found to be 0.073 µg/mL; in assay [16], 0.104 µg/mL; in assay [17] it was 0.422 µg/mL; in assay [18], 1.4 µg/mL; in assay [19], 0.524 µg/mL; in assay [20], 0.392 µg/mL. Besides, the values for the IC80 (Titer in TZM.bl cells) in [21], in assay [22] and in [23] were 0.263 µg/mL, more than 50 µg/mL and 10 µg/mL, respectively.

Take 3BNC117 (antibody): the IC50 (Titer in TZM.bl cells) worked out at 0.01 µg/mL in assay [15]; 0.03 µg/mL in [16]; 0.06 µg/mL in assay [17]; 0.05 µg/mL in [18]; 0.28 µg/mL in assay [19]; 1.38 µg/mL in [20]. The IC50 (Titer in TZM.bl cells) was 0.05 µg/mL in assay [21], more than 50 µg/mL in assay [22] and 1.58 µg/mL in assay [23]. For the same substance, the IC80 (Titer in TZM.bl cells) in assay [15] is 0.05 µg/mL; in assay [16], 0.1 µg/mL; in assay [17], 0.38 µg/mL; in assay [18] it was 0.31 µg/mL; in assay [19], 1.28 µg/mL; in [20], more than 30 µg/mL. Further, the figures for the IC80 (Titer in TZM.bl cells) in [21], in assay [22] and in assay [23] were 0.22 µg/mL, more than 50 µg/mL and 10.4 µg/mL, respectively.
